{"source": "patent US20050170434", "proteins": {"B1": {"name": "MKK3b (WT) (protein)", "chain": "MESPASSQPASMPQSKGKSKRKKDLRISCMSKPPAPNPTPPRNLDSRTFITIGDRNFEVEADDLVTISELGRGAYGVVEKVRHAQSGTIMAVKRIRATVNSQEQKRLLMDLDINMRTVDCFYTVTFYGALFREGDVWICMELMDTSLDKFYRKVLDKNMTIPEDILGEIAVSIVRALEHLHSKLSVIHRDVKPSNVLINKEGHVKMCDFGISGYLVDSVAKTMDAGCKPYMAPERINPELNQKGYNVKSDVWSLGITMIEMAILRFPYESWGTPFQQLKQVVEEPSPQLPADRFSPEFVDFTAQCLRKNPAERMSYLELMEHPFFTLHKTKKTDIAAFVKEILGEDS"}}, "molecular_target": "p38 MAPK, Q16539", "sequence (Q16539 2-360)": "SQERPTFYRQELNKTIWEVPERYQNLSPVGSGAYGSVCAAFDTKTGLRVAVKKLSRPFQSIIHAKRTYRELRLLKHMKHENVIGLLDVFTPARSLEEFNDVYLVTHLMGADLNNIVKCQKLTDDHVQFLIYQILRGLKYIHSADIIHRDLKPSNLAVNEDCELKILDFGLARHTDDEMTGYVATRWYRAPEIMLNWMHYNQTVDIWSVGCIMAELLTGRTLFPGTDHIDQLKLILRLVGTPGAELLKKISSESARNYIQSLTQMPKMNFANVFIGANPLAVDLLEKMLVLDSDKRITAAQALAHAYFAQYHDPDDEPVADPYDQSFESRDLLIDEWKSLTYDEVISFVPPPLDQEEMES"}
{"protein": "B1", "values": [{"measurement": "p38 phosphorylation (western blot using anti-phospho-p38 antibodies)", "value": "in MKK3b (WT)-infected cells, the basal level of phosphorylated p38 protein dramatically increased compared with the basal level in cells infected with vector (TICD8)"}]}
